Measured values published in paper doi:10.1101/2020.07.27.223248 (bioRxiv, 2020).

Molecular target: the molecule itself
Assay: cryo-EM structure

B1: FljK T103C N130S, straightened flagellar filament (natural protein, C. crescentus, UniProt P18913 1-273, looked up)
chain: MALNSINTNAGAMIALQNLNGTNSELTTVQQRINTGKKIASAKDNGAIWATAKNQSATAASMNAVKDSLQRGQSTIDVALAAGDTITDLLGKMKEKALAASDCSLNTASFNALKSDFDSLRDQIEKAATSAKFNGVSIADGSTTKLTFLANSDGSGFTVNAKTISLAGIGLTTTSTFTTAAAAKTMIGTIDTALQTATNKLASLGTSSVGLDTHLTFVGKLQDSLDAGVGNLVDADLAKESAKLQSLQTKQQLGVQALSIANQSSSSILSLFR
modifications: post-translational modifications on conserved surface threonine residues, likely O-linked glycans (positions not given)
Does B1 bind?
Result: binds
